Common to all, as to experiment: fluorescence polarisation; 25 °C; unlabeled Rb^P titrated against 1.5 nM TMR-E2F1^TD or 7.5 nM TMR-E7^LxCxE; 25 mM Tris pH 8.0, 200 mM NaCl, 1 mM DTT, 0.1% Tween-20; 2 min incubation; quadratic fit; apparent Kd for the variants, Kd for WT
Holding throughout (details): both partners purified
(In general: Fluorescence polarisation rises when a labelled molecule tumbles more slowly, as on binding a larger partner.)

In one test the target is T1, Rb^P D584Y (human, UniProt P06400 380-788, D584Y).
T1 construct: also called variant 32
T1 sequence (looked up): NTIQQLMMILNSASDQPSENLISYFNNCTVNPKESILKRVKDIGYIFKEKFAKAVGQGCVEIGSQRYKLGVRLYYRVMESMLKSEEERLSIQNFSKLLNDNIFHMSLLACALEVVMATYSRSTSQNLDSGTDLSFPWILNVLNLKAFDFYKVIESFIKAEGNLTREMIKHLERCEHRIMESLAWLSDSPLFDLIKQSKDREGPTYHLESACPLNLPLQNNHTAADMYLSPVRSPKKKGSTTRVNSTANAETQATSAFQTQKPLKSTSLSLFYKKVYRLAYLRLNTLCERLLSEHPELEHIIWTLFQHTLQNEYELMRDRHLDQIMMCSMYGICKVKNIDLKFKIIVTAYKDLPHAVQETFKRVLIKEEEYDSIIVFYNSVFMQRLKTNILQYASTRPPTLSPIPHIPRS

For a further test, the target named is T2, Rb^P K462T (human, UniProt P06400 380-788, K462T).
T2 construct: also called variant 9
T2 sequence (looked up): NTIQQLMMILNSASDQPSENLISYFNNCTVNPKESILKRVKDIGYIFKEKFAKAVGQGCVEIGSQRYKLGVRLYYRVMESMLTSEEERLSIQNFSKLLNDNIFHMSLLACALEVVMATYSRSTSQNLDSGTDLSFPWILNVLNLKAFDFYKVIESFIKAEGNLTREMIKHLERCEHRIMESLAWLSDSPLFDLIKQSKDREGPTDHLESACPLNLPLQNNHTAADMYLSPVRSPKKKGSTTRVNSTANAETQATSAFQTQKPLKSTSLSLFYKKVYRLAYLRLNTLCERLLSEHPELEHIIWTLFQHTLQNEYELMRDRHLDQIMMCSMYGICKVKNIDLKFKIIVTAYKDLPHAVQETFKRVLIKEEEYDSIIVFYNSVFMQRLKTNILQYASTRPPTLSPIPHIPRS

Another test deals with T3, Rb^P M546I (human, UniProt P06400 380-788, M546I).
T3 construct: also called variant 25
T3 sequence (looked up): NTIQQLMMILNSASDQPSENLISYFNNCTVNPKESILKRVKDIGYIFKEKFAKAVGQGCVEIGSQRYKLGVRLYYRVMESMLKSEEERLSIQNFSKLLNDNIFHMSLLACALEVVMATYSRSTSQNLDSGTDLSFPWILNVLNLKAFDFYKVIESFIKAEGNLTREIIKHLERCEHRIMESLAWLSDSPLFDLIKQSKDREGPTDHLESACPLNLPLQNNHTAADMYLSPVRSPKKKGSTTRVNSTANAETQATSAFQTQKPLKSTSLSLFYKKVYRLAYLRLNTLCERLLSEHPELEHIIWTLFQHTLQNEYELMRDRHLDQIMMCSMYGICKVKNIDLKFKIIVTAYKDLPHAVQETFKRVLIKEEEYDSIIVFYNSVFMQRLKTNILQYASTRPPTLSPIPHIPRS

The target of another test is T4, Rb^P M761L (human, UniProt P06400 380-788, M761L).
T4 construct: also called variant 74
T4 sequence (looked up): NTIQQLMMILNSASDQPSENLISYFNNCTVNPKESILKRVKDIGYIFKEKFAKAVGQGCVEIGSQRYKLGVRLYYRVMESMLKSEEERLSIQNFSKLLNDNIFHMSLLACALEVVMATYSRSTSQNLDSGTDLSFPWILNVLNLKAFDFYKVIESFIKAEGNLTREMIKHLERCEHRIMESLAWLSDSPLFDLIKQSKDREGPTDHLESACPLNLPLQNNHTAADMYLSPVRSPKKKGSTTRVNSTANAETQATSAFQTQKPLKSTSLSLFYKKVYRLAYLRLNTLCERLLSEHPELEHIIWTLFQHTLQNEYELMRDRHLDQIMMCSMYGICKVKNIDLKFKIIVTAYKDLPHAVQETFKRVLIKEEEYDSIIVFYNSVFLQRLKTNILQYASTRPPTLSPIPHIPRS

The target in the next test is T5, Rb^P E539D (human, UniProt P06400 380-788, E539D).
T5 construct: also called variant 24
T5 sequence (looked up): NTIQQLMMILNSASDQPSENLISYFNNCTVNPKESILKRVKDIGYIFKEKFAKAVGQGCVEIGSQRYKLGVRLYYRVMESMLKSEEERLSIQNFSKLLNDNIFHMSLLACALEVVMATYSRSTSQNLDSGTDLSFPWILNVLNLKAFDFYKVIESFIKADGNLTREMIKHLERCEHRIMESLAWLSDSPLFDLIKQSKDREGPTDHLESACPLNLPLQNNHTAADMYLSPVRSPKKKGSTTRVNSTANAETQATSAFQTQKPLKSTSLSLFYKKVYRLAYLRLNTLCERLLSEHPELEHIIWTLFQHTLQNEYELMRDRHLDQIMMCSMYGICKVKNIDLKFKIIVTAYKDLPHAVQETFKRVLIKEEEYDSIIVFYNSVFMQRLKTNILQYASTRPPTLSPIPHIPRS

No end group written: not given here. TMR = tetramethyl rhodamine dye

B1: TMR-E2F1^TD, peptide of the E2F1 transactivation domain (peptide)
peptide: {TMR}-GEGIRDLFDCDFGDLTPLD
notes: also called E2F^TD; source: synthetic peptide, bought: GenScript
Consider B1, for which the Kd in the test with Rb^P D584Y was found to be 33 nM; in the test with Rb^P K462T, 30 nM; with Rb^P M546I, 13 nM; with Rb^P M761L, 32 nM; in the test with Rb^P E539D it was 55 nM.

B2: TMR-E7^LxCxE, LxCxE peptide of the E7 oncoprotein from HPV (peptide)
peptide: DLYCYEQLN
modifications: also: TMR label, position not given here
notes: source: synthetic peptide, bought: GenScript
Regarding B2, the Kd was 12 nM with Rb^P D584Y; 8 nM with Rb^P K462T; 7 nM with Rb^P M546I; 1.3 nM with Rb^P M761L; 7 nM in the test with Rb^P E539D.
